Assay [1] deals with T1, Sap1 (Homo sapiens, UniProt Q9HD43).
T1 sequence (Q9HD43 820-1079 limits assumed): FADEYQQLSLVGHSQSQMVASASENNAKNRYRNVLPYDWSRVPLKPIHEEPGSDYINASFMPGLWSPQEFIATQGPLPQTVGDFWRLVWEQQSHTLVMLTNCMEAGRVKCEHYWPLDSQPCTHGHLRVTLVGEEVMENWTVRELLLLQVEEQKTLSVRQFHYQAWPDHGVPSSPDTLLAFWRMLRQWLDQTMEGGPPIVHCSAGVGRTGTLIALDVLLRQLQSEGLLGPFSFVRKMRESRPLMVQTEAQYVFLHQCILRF
As to the kind of experiment: Km of example phosphopeptide substrates (Table IX summary). The assay is classed as biochemical. To be noted: phosphopeptide as Sap1 substrate.

The target of assay [2] is SHP1 (Homo sapiens, UniProt P29350). As to conditions: classification of Wang Peng et al. (68); cited from earlier work.

Square brackets hold non-standard residues; d marks the D form. Ends that are not written are not given here. pY = N[C@@H](Cc1ccc(OP(=O)(O)O)cc1)C(=O)O

The term Km denotes the concentration of substrate that gives half-maximal velocity.

Chain of SHP1 (P29350 whole entry): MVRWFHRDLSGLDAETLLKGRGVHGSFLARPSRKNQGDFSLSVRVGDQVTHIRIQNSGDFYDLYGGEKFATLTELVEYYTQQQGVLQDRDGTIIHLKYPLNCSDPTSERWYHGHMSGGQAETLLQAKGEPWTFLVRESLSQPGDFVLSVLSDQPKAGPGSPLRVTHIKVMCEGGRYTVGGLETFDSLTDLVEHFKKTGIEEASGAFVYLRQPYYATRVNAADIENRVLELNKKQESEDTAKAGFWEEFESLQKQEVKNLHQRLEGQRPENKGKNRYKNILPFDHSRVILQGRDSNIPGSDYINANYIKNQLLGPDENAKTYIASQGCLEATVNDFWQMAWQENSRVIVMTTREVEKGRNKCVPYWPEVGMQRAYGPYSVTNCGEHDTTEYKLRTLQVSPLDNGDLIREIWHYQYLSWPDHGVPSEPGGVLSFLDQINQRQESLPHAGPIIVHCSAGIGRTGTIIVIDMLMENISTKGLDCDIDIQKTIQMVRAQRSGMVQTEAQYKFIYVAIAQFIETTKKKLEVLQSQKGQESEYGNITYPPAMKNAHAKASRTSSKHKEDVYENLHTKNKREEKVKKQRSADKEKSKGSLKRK

For “EFpYGAFA/G (chain 1 EF[pY]GAFA; chain 2 EF[pY]GAFG)”, the Michaelis-Menten constant (Km) in assay [1] stood at 7 µM. Turning to “RNNEFpYA-NH2 (RNNEF[pY]A-NH2; N-terminus assumed; SMILES C[C@H](NC(=O)[C@H](Cc1ccc(OP(=O)(O)O)cc1)NC(=O)[C@H](Cc1ccccc1)NC(=O)[C@H](CCC(=O)O)NC(=O)[C@H](CC(N)=O)NC(=O)[C@H](CC(N)=O)NC(=O)[C@@H](N)CCCNC(=N)N)C(N)=O) [SHP-1 peptide of Wang Peng et al., excluded from the invention]”, the “Substrate class for SHP-1” value in assay [2] is “class 3”.

(Values after patent US20060241020A1, “Protein tyrosine phosphatase inhibitors” (Applied Research Systems ARS Holdings N.V., priority 2002, published 2006).)
